Molecular target: the molecule itself
Assay: SEC; analytical gel filtration, Superdex 75 10/300 GL, 10 mM Tris-HCl pH 8.5, 100 mM NaCl, 1 mM DTT; calibrated with BSA (66 kDa) and rabbit IgG (150 kDa)

Protein | stoichiometry N | binding result
MaoC-like hydratase from Phytophthora capsici (enzyme, MaoC-like hydratase, Phytophthora capsici strain SD33, full length (Met-1 to Leu-298); Cloned BamHI/EcoRI into pET28a; no step that removes the tag is described, and the purified enzymes were detected with anti-His antibody on western blots; also called wild type MaoC; native MaoC; source: E. coli BL21 (DE3) pLysS, purified (Ni-NTA, Superdex-75 gel filtration)) MSVNVDKILNSPEATYTATYNQRDLLMYAVGIGESDLQFTYEFDEKFSAFPLYPVCLPFKGQSQDVVPFPPETISAAPDGMPSFNPAMILHGEQSVEILRPLDPSGGTLTGKTKVISFYDKGKGTLMETQTQFEDGNGPVAKLISGSFIRGLTGYEGKGRKLPARVQIPKRQPDFNDEFKTSPHQAQVYRLSGDYNSLHIDPEIAKSVGFKQPILHGLCSMGVASRALFKQFCGGDVARFKSIRVRFSSPCFPGETIQTRMWQEGSGKVLFQAVVKERGAVIVDGGEFVYTQDASARL | 2 | 
MaoC Del63-71 (enzyme, MaoC-like hydratase, Phytophthora capsici strain SD33, full length with residues 63-71 deleted; Made from the wild-type plasmid (pET28-MaoC) with the MutanBEST kit; source: E. coli BL21 (DE3) pLysS, purified as described for the wild-type protein) MSVNVDKILNSPEATYTATYNQRDLLMYAVGIGESDLQFTYEFDEKFSAFPLYPVCLPFKGQETISAAPDGMPSFNPAMILHGEQSVEILRPLDPSGGTLTGKTKVISFYDKGKGTLMETQTQFEDGNGPVAKLISGSFIRGLTGYEGKGRKLPARVQIPKRQPDFNDEFKTSPHQAQVYRLSGDYNSLHIDPEIAKSVGFKQPILHGLCSMGVASRALFKQFCGGDVARFKSIRVRFSSPCFPGETIQTRMWQEGSGKVLFQAVVKERGAVIVDGGEFVYTQDASARL |  | binds
MaoC Del63-88 (enzyme, MaoC-like hydratase, Phytophthora capsici strain SD33, full length with residues 63-88 deleted; Made from the wild-type plasmid (pET28-MaoC) with the MutanBEST kit; source: E. coli BL21 (DE3) pLysS, purified as described for the wild-type protein) MSVNVDKILNSPEATYTATYNQRDLLMYAVGIGESDLQFTYEFDEKFSAFPLYPVCLPFKGQILHGEQSVEILRPLDPSGGTLTGKTKVISFYDKGKGTLMETQTQFEDGNGPVAKLISGSFIRGLTGYEGKGRKLPARVQIPKRQPDFNDEFKTSPHQAQVYRLSGDYNSLHIDPEIAKSVGFKQPILHGLCSMGVASRALFKQFCGGDVARFKSIRVRFSSPCFPGETIQTRMWQEGSGKVLFQAVVKERGAVIVDGGEFVYTQDASARL |  | binds

Reference: paper PMC3823801, “Structure Reveals Regulatory Mechanisms of a MaoC-Like Hydratase from Phytophthora capsici Involved in Biosynthesis of Polyhydroxyalkanoates (PHAs)” (PLoS ONE, 2013)
